Source: patent US6136579

Molecular target: asialofetuin (Sigma Type-I) (Bos taurus (Bovine)) (UniProt P12763)

“Triton extract of uninfected RK13 cells (pool or library)” was tested, and the […] (fluorescence assay, […] (mU/mg total protein) was 0.036.
